The assay has as its target NRPS-13 subunit B: SZ18 at the N-terminus of the C-terminal part of XtpS, split in the A-T linker of module two (Xenorhabdus nematophila ATCC 19061). The assay is described as follows: cell-based or functional assay.

Sequence of NRPS-13 subunit B: SZ18 at the N-terminus of the C-terminal part of XtpS, split in the A-T linker of module two (Xenorhabdus nematophila ATCC 19061) (chain, as listed by the source): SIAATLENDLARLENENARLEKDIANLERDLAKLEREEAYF

“NRPS-13 subunit A: N-terminal part of XtpS, split in the A-T linker of module two, with SZ17 at its C-terminus (enzyme)” displayed a peptide yield of xenotetrapeptide 1 by the split synthetase NRPS-13 produced in E. coli DH10B::mtaA (HPLC-MS/MS) of 155 mg/L.

The values above are taken from patent EP4424820A1.
